Source: article PMC2747011, “Soybean GmPHD-Type Transcription Regulators Improve Stress Tolerance in Transgenic Arabidopsis Plants”

Key:
Conditions in all cases: protein: recombinant; tags: GST (N-term, pGEX-4T-1); strand 1 has 5' overhang AATT (4 nt) and 3' overhang AGCT (4 nt); strand 2 fully paired
GST-GmPHD5 = target: T1, GST-GmPHD5 (Glycine max, UniProt Q06A75 1-252); assay: EMSA; reduced by 10x unlabeled probe; Binding buffer not given (EMSA as in ref. 59); probe annealed in 50 mM NaCl; competitor in ten-fold excess
T1 sequence: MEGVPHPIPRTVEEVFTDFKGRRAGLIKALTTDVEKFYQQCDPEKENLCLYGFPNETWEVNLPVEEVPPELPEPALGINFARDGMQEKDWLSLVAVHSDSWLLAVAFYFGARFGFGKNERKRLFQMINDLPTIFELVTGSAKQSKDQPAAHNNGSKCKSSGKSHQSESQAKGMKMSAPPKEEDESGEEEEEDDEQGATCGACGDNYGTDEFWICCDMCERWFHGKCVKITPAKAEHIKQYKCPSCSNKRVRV

GST-GmPHD6 = target: T2, GST-GmPHD6 (Glycine max, UniProt I1L1N8 1-248); assay: as above
T2 sequence: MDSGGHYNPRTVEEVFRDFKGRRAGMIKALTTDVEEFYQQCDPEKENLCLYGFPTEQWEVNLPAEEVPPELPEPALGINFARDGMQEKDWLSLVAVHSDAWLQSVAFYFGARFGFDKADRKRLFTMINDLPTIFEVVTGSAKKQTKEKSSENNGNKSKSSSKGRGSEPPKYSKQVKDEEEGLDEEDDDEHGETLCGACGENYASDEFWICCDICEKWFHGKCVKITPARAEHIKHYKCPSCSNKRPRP

GmPHD4 N domain = target: T3, GmPHD4 N domain (Glycine max, UniProt I1M961 1-114); assay: EMSA; strong; Binding buffer not given (EMSA as in ref. 59); probe annealed in 50 mM NaCl; competitor in ten-fold excess
T3 sequence: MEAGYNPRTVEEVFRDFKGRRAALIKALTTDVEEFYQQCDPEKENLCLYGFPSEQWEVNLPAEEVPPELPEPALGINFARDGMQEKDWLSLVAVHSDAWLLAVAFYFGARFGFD

GmPHD4 NV = target: T4, GmPHD4 NV (Glycine max, UniProt I1M961 1-199); assay: EMSA; Binding buffer not given (EMSA as in ref. 59); probe annealed in 50 mM NaCl; competitor in ten-fold excess
T4 sequence: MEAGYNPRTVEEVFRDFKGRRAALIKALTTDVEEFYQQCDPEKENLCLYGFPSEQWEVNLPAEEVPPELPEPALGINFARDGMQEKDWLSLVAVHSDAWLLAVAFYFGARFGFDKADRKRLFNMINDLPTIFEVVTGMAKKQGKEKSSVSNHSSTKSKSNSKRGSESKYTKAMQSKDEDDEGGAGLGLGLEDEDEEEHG

B1: 5x GTGGAG probe (dsDNA)
DNA 1: AATTCGGATCCGTGGAGGTGGAGGTGGAGGTGGAGGTGGAGGGTACCGAGCT
DNA 2: CGGTACCCTCCACCTCCACCTCCACCTCCACCTCCACGGATCCG
binding result (GST-GmPHD5): binds | binding result (GST-GmPHD6): binds | binding result (GmPHD4 N domain): binds | binding result (GmPHD4 NV): no binding
